Positions count from the first letter of the chain named. Numbers in names are those of the source.
B1: AT-P3R (antithrombin with the PCI reactive site loop and an arginine at P3) (other)
chain: HGSPVDICTAKPRDIPMNPMCIYRSPEKKATEDEGSEQKIPEATNRRVWELSKANSRFATTFYQHLADSKNDNDNIFLSPLSISTAFAMTKLGACNDTLQQLMEVFKFDTISEKTSDQIHFFFAKLNCRLYRKANKSSKLVSANRLFGDKSLTFNETYQDISELVYGAKLQPLDFKENAEQSRAAINKWVSNKTEGRITDVIPSEAINELTVLVLVNTIYFKGLWKSKFSPENTRKELFYKADGESCSASMMYQEGKFRYRRVAEGTQVLELPFKGDDITMVLILPKPEKSLAKVEKELTPEVLQEWLDELEEMMLVVHMPRFRIEDGFSLKEQLQDMGLVDLFSPEKSKLPGIVAEGRDDLYVSDAFHKAFLEVNEEGSEAAASTAVVIRFRSARPNRVTFKANRPFLVFIREVPLNTIIFMGRVANPCVK
notes: I derived them from P1′ = serine 394 of mature antithrombin
B2: AT-rsl (antithrombin with the reactive site loop sequence of PCI) (other, Homo sapiens, UniProt P01008 33-464, looked up)
chain: B1 chain with R391T
notes: mature; I derived them from P1′ = serine 394 of mature antithrombin; also called AT-rs1; Reactive site loop mutant
B3: AT-pos (antithrombin H-helix mutant D309K, E310K, E312K, E313K) (other, Homo sapiens, UniProt P01008 33-464, looked up)
chain: B1 chain with D309K, E310K, E312K, E313K, R391A, F392G, A395L, R396N
notes: mature; The residue numbers appear to count on mature antithrombin; also called H-helix mutant Poly-K

Columns and labels:
[1] = biological target: T1, Factor Xa (human, UniProt P00742 41-179; P00742 235-488, limits assumed); test: discontinuous Factor Xa inhibition assay, chromogenic substrate SpFXa
T1 construct: also called FXa
T1 sequence (P00742 41-179 limits assumed, form in doubt, chain 1 of 2): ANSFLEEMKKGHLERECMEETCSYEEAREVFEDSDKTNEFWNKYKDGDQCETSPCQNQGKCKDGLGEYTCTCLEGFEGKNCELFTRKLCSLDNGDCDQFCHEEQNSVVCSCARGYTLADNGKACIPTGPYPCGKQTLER
T1 sequence (P00742 235-488 limits assumed, form in doubt, chain 2 of 2): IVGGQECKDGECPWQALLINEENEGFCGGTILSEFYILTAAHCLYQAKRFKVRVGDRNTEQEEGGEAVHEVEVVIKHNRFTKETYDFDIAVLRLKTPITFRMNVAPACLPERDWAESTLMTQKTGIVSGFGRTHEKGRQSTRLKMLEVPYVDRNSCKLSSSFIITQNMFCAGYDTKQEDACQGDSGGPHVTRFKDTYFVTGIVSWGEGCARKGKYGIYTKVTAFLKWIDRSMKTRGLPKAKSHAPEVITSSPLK
Procedure: (§1) Serine Protease Inhibition Assays. The rates of inhibition of the serine proteases thrombin, factor Xa and APC in the presence and absence of heparin were measured using discontinuous assays under pseudo-first order rate conditions as described previously (Phillips et al., 1994; Rezaie et al., 1995). Protein was diluted in TBS buffer containing 0.1 mg/ml BSA, 0.1% PEG 8000, and 0.01% azide to a final reaction volume of 50 μl. […] Substrates used were Spectrozyme TH (SpTH) for thrombin and trypsin, PCA (SpPCA) for APC, and FXa (SpFXa) for Factor Xa (American Diagnostica, Greenwich, Conn.). Absorbances were determined using a SpectraMax Plus plate reader (Molecular Devices, Sunnyvale, Calif.). Absorbance is directly related to residual protease activity. In assays containing heparin, 1 mg/ml Polybrene was added to the substrate to block further heparin binding during substrate development. For heparin template curve data, varying concentrations (0-1000 μg/ml) of unfractionated heparin were added and proteins were diluted in HNPN buffer. For remaining heparin assays, the resulting optimal heparin concentration (5 μg/ml) was used. […] TM was either purified rabbit TM (RTM) or recombinant 4-6 TM (provided by Dr. Alireza Rezaie). Second-order rate constants of thrombin inhibition were determined using the following equation: […]

[2] = biological target: T2, thrombin (free thrombin) (human, UniProt P00734 328-622); test: discontinuous thrombin inhibition assay, chromogenic substrate; no TM
Procedure: as §1
(§2) Inhibition in the presence of TM.

[3] = biological target: T3, trypsin; test: discontinuous trypsin inhibition assay, chromogenic substrate SpTH
T3 construct: The source of the trypsin is doubtful, so see recheck
Procedure: as §1
Trypsin inhibition assays were performed to examine the overall activity of each mutant protein.

[4] = biological target: T2, thrombin (free thrombin); test: ratio of κ2 with heparin to κ2 without heparin
Procedure: as §1
(§3) Inhibition in the presence of heparin. Thrombin inhibition is accelerated (300- to 1000-fold) in the presence of heparin (Olson et al., 1992). […] Changes in heparin binding domains may alter the concentration of heparin required for the fastest rate of thrombin inhibition.

[5] = biological target: T2, thrombin (free thrombin); test: discontinuous thrombin inhibition assay, chromogenic substrate; no heparin
Procedure: as §1, §3

[6] = biological target: T4, thrombin bound to 4-6 TM (recombinant EGF repeats 4-6 of thrombomodulin) (human, UniProt P00734 328-622; P07204 363-483); test: discontinuous thrombin inhibition assay, chromogenic substrate; thrombin with 4-6 TM
Procedure: as §1, §2

[7] = biological target: T2, thrombin (free thrombin); test: discontinuous thrombin inhibition assay, chromogenic substrate; with 5 µg/ml heparin
Procedure: as §1, §3

[8] = biological target: T4, thrombin bound to 4-6 TM (recombinant …); test: ratio of κ2 with 4-6 TM to κ2 on free thrombin
Procedure: as §1, with “Protein” for “Serine Protease Inhibition Assays. The rates of inhibition of the serine proteases thrombin, factor Xa and APC in the presence and absence of heparin were measured using discontinuous assays under pseudo-first order rate conditions as described previously (Phillips et al., 1994; Rezaie et al., 1995). Protein”
as §2

[9] = biological target: T4, thrombin bound to 4-6 TM (recombinant …); test: ratio of κ2 with 4-6 TM to κ2 on free thrombin; remark: listed apart in the source
[10] = biological target: thrombin bound to rabbit thrombomodulin (RTM) (human; rabbit, UniProt P00734 328-622; Q8HZ48 21-576); test: ratio of κ2 with RTM to κ2 on free thrombin
Procedure: as §1

| Binder | second-order rate constant (κ2) of inhibition [1] [M⁻¹ s⁻¹] | second-order rate constant (κ2) of inhibition [2] [M⁻¹ s⁻¹] | second-order rate constant (κ2) of inhibition [3] [M⁻¹ s⁻¹] | Ratio (+/-) of κ2 with and without heparin [4] [fold] | second-order rate constant (κ2) of inhibition [5] [M⁻¹ s⁻¹] | second-order rate constant (κ2) of inhibition [6] [M⁻¹ s⁻¹] | second-order rate constant (κ2) of inhibition [7] [M⁻¹ s⁻¹] | Ratio (+/-) of κ2 with and without 4-6 TM [8] [fold] | Ratio to no TM (4-6 TM) [9] [fold] | Ratio to no TM (RTM) [10] [fold] |
| --- | --- | --- | --- | --- | --- | --- | --- | --- | --- | --- |
| B1 | 260 | 2000 | 10000 | 263 | 4800 | 1200 | 1.3e+06 | 0.6 | – | – |
| B2 | – | 3400 | 6100 | 210 | 3000 | 2500 | 630000 | 0.7 | – | – |
| B3 | 1000 | 5500 | 9500 | 34 | 5300 | 20000 | 180000 | 3.7 | 3 | 90.7 |

Source: patent US20010055591A1 (WISYS TECHNOLOGY FOUNDATION, published 2001)
